The target in experiment [1] is T1, human HLA-A*0201 molecule (human, UniProt P04439 25-302 at identity 0.94)).
T1 construct: whole, on cells; MHC class I molecule on the surface of T2-0201 cells; also called HLA-A0201 class I molecule
T1 MHC heavy: not shown
Briefly: MHC stabilization assay, T2-0201 cells, flow cytometry of surface HLA-A0201 (non-peptide 275.7). An excerpt:
(§1) Next, a binding ability to an HLA-A0201 molecule was actually analyzed by an MHC stabilization assay.
(A flow cytometer gives signals particle by particle.)

Experiment [2] addresses T1, human HLA-A*0201 molecule. Description: binding assay (stabilization assay), T2-0201 cells, flow cytometry (non-peptide 84.50).
Source text: as §1

Experiment [3] concerns the target T1, human HLA-A*0201 molecule. Description: binding assay (stabilization assay), T2-0201 cells, flow cytometry.
Source text: as §1

For experiment [4], the target named is T1, human HLA-A*0201 molecule. Briefly: MHC stabilization assay, T2-0201 cells, flow cytometry of surface HLA-A0201.
Source text: as §1

B1: eEF2284-292 peptide (peptide)
peptide: KLPRTFCQL
notes: Synthesized 9-residue peptide of eEF2; also called candidate peptide number 7
Molecule B1 yielded an MFI in experiment [1] of 449.

B2: eEF2739-747 peptide (peptide)
peptide: RLMEPIYLV
notes: Synthesized 9-residue peptide of eEF2; also called candidate peptide number 2
Consider B2, for which the MFI in experiment [1] was 665.

B3: eEF2661-669 peptide (peptide)
peptide: ILTDITKGV
notes: Synthesized 9-residue peptide of eEF2; also called candidate peptide number 5
Take B3: in experiment [1], the MFI came to 828.

B4: eEF2394-402 peptide (peptide)
peptide: LMMYISKMV
notes: Synthesized 9-residue peptide of eEF2; also called candidate peptide number 6
B4: the MFI in experiment [1] stood at 448.

B5: eEF2671-679 peptide (peptide)
peptide: YLNEIKDSV
notes: Synthesized 9-residue peptide of eEF2; also called candidate peptide number 4
B5 displayed an MFI in experiment [1] of 523.

B6: eEF2519-527 peptide (peptide)
peptide: KLVEGLKRL
notes: Synthesized 9-residue peptide of eEF2; also called candidate peptide number 3
On to B6, for which the MFI in experiment [1] is 438.
In experiment [2], LLLDPIFKV (Modified-type peptide) [eEF2292-300 2L peptide] came in with an MIF of 339.

B7: eEF2292-300 peptide (peptide)
peptide: LILDPIFKV
notes: Synthesized 9-residue peptide of eEF2; also called candidate peptide number 1
For B7, the “% MIF increase” value in experiment [3] turned out to be 269%. For the same molecule, the “% MFI increase” value in experiment [4] was 183%. The MIF in experiment [2] stood at 312. The MFI in experiment [1] stood at 781.
Molecule LMLDPIFKL (Modified-type peptide) [eEF2292-300 2M9L peptide] registered an MIF in experiment [2] of 275.
In turn, LLLDPIFKL (Modified-type peptide) [eEF2292-300 2L9L peptide] returned an MIF in experiment [2] of 319.
Molecule LMLDPIFKV (Modified-type peptide) [eEF2292-300 2M peptide] gave an MIF in experiment [2] of 313.

Values taken from US20160051652A1 (INTERNATIONAL INSTITUTE OF CANCER IMMUNOLOGY, published 2016).
